Like-named read-outs stand apart in the source and are kept apart here.

Assay [1] addresses myosin-Va GTD (Homo sapiens) (UniProt Q9Y4I1). The note with it: cited from earlier work.
A further assay addresses Mlph RBD (Homo sapiens) (UniProt Q9BV36). The note with it: cited from earlier work.
Assay [2] addresses myosin-Va GTD (Homo sapiens) (UniProt Q9Y4I1). The note with it: cited from earlier work. The source holds these as a separate data set.
In a further assay the target is T1, GST-Rab27a-Q78L (UniProt P23640 1-221, Q78L).
T1 construct: Rab27a; rat Rab27a is stated only for the BiFC constructs; also called GTP-locked Rab27a-Q78L; active Rab27a-Q78L; source: E. coli Rosetta, purified (GSH-Sepharose 4B, size-exclusion chromatography)
T1 sequence (looked up): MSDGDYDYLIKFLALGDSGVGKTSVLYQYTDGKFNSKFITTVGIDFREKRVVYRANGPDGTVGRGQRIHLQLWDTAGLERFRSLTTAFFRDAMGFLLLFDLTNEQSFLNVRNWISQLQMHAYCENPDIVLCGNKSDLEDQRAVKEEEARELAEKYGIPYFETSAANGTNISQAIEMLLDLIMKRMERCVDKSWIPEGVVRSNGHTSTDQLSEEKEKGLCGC
The experiment in a line: pull-down; quantitative GST pull-down: increasing concentrations of GST-Rab27a-Q78L on beads, HEK293 lysate (GFP-SPIRE1-MSFH ~50 nM); GFP depletion from the supernatant measured by fluorospectrometry at 20 °C; fraction bound fitted for Kd.

A further assay addresses T2, vYCE-Rab27a wild type (rat, UniProt P23640 1-221).
T2 construct: rat Rab27a; also called wild-type Rab27a; WT; source: HEK293a, transfected, in living cells
T2 sequence (looked up): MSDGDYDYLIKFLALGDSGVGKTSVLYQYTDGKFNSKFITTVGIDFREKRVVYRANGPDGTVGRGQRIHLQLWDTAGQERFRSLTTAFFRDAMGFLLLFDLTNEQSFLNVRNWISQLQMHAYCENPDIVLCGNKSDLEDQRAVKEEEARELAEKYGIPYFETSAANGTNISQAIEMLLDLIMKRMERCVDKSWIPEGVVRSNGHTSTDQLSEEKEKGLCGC
Description: split reporter (BiFC, NanoBiT); BiFC in living HEK293a cells: vYNE-SPIRE1/2 and vYCE-Rab27a co-expressed with mCherry; vYFP signal normalised to mCherry, 48 h after transfection. The conditions noted are these: partners not purified.

The target in the next assay is T3, vYCE-Rab27a Q78L (rat, UniProt P23640 1-221, Q78L).
T3 construct: rat Rab27a; also called Q78L mutant; source: HEK293a, transfected, in living cells
T3 sequence (looked up): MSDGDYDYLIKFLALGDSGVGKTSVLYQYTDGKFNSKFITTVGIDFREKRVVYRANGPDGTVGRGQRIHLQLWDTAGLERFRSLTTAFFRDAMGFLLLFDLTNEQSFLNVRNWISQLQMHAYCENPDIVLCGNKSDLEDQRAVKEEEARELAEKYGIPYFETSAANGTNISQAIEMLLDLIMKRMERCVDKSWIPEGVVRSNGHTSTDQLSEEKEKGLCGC
Described as above. The conditions noted are these: partners not purified.

Chain of myosin-Va GTD (Homo sapiens) (Q9Y4I1 1448-1855): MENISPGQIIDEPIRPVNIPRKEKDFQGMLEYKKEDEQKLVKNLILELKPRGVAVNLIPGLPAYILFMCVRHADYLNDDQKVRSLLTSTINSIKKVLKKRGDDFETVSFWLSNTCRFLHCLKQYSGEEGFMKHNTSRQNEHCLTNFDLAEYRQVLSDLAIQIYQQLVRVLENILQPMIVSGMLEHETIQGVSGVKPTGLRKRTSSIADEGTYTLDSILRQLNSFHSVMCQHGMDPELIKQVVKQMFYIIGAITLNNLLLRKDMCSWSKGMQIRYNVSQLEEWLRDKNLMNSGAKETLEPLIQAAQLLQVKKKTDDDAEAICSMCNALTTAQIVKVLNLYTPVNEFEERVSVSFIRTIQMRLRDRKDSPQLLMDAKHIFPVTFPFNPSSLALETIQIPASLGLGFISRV
Chain of Mlph RBD (Homo sapiens) (Q9BV36 4-124): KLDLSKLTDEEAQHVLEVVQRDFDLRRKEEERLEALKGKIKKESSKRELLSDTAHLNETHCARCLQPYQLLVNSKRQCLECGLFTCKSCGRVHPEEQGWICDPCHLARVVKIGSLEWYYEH

Take Mlph (from UniProt Q9BV36): the dissociation constant (Kd) in assay [1] is 500 nM. For the molecule Rab27a (from UniProt P51159), the Kd with Mlph RBD (Homo sapiens) was 112 nM. As for SPIRE2 (from UniProt Q8WWL2), the Kd in assay [2] was 900 nM. In turn, GFP-Mlph-RBD (domain or fragment) displayed a Kd with GST-Rab27a-Q78L of 143 nM.

B1: GFP-SPIRE1-MSFH (domain or fragment)
chain: PEEIRRSRLDVTTPESTKNLVESSMVNGGLTSQTKENGLSTSQQVPAQRKKLLRAPTLAELDSSESEEETLHKSTSSSSVSPSFPEEPVLEAVSTRKKPPKFLPISSTPQPERRQPPQRRHSIEKETPTNVRQFLPPSRQSSRSLEEFCYPVECLALTVEEVMHIRQVLVKAELEKYQQYKDIYTALKKGKLCFCCRTRRFSFFTWSYTCQFCKRPVCSQCCKKMRLPSKPYSTLPIFSLGPSALQRGESSMRSEKPSTAHHRPLRSIARFSSKSKSMDKSDEELQFPKELMEDWSTMEVCVDCKKFISEIISSSRRSLVLANKRARLKRKTQSFYMSSPGPSEYCPSERTISEI
modifications: Limits are not in the text (Fig. 6a / Supplementary Table 9). By convention, the start is just after the last WH2 (ends at 386) and the end is the C-terminus. NM_020148.2 is taken as the 742-aa …
On to B1, for which the Kd with GST-Rab27a-Q78L (one partner purified) is 707 ± 155 nM.

B2: vYNE-SPIRE2 (natural protein, human, UniProt Q8WWL2 1-714, looked up)
chain: MARAGSCGGAAAGAGRPEPWELSLEEVLKAYEQPLNEEQAWAVCFQGCRGLRGSPGRRLRDTGDLLLRGDGSVGAREPEAAEPATMVVPLASSEAQTVQSLGFAIYRALDWGLDESEERELSPQLERLIDLMANNDSEDSGCGAADEGYGGPEEEEEAEGVPRSVRTFAQAMRLCAARLTDPRGAQAHYQAVCRALFVETLELRAFLARVREAKEMLQKLREDEPHLETPRAELDSLGHTDWARLWVQLMRELRRGVKLKKVQEQEFNPLPTEFQLTPFEMLMQDIRARNYKLRKVMVDGDIPPRVKKDAHELILDFIRSRPPLKQVSERRLRPLPPKQRSLHEKILEEIKQERRLRPVRGEGWAARGFGSLPCILNACSGDAKSTSCINLSVTDAGGSAQRPRPRVLLKAPTLAEMEEMNTSEEEESPCGEVTLKRDRSFSEHDLAQLRSEVASGLQSATHPPGGTEPPRPRAGSAHVWRPGSRDQGTCPASVSDPSHPLLSNRGSSGDRPEASMTPDAKHLWLEFSHPVESLALTVEEVMDVRRVLVKAEMEKFLQNKELFSSLKKGKICCCCRAKFPLFSWPPSCLFCKRAVCTSCSIKMKMPSKKFGHIPVYTLGFESPQRVSAAKTAPIQRRDIFQSLQGPQWQSVEEAFPHIYSHGCVLKDVCSECTSFVADVVRSSRKSVDVLNTTPRRSRQTQSLYIPNTRTLDFK
notes: human SPIRE2, cDNA AJ422077; also called SPIRE2 (BiFC); source: HEK293a, transfected, in living cells; not shown: enhanced Venus YFP N-terminus fragment (amino acids 1-173)
Take B2: the “mean normalised BiFC (% max)” value with vYCE-Rab27a wild type worked out at 85.4 % max; with vYCE-Rab27a Q78L, 85.2 % max.

B3: vYNE-SPIRE1 (natural protein, human, UniProt Q08AE8-2 1-742, looked up)
chain: MAQAAGPAGGGEPRTEAVGGEGPREPGAAGGAAGGSRDALSLEEILRLYNQPINEEQAWAVCYQCCGSLRAAARRRQPRHRVRSAAQIRVWRDGAVTLAPAADDAGEPPPVAGKLGYSQCMETEVIESLGIIIYKALDYGLKENEERELSPPLEQLIDHMANTVEADGSNDEGYEAAEEGLGDEDEKRKISAIRSYRDVMKLCAAHLPTESDAPNHYQAVCRALFAETMELHTFLTKIKSAKENLKKIQEMEKSDESSTDLEELKNADWARFWVQVMRDLRNGVKLKKVQERQYNPLPIEYQLTPYEMLMDDIRCKRYTLRKVMVNGDIPPRLKKSAHEIILDFIRSRPPLNPVSARKLKPTPPRPRSLHERILEEIKAERKLRPVSPEEIRRSRLDVTTPESTKNLVESSMVNGGLTSQTKENGLSTSQQVPAQRKKLLRAPTLAELDSSESEEETLHKSTSSSSVSPSFPEEPVLEAVSTRKKPPKFLPISSTPQPERRQPPQRRHSIEKETPTNVRQFLPPSRQSSRSLEEFCYPVECLALTVEEVMHIRQVLVKAELEKYQQYKDIYTALKKGKLCFCCRTRRFSFFTWSYTCQFCKRPVCSQCCKKMRLPSKPYSTLPIFSLGPSALQRGESSMRSEKPSTAHHRPLRSIARFSSKSKSMDKSDEELQFPKELMEDWSTMEVCVDCKKFISEIISSSRRSLVLANKRARLKRKTQSFYMSSPGPSEYCPSERTISEI
notes: human SPIRE1, cDNA NM_020148.2; also called SPIRE1 (BiFC); source: HEK293a, transfected, in living cells; not shown: enhanced Venus YFP N-terminus fragment (amino acids 1-173)
On to B3, for which the results for the “mean normalised BiFC (% max)” value with vYCE-Rab27a wild type and with vYCE-Rab27a Q78L were 89.3 % max and 75.2 % max, respectively.

In general, Kd refers to a measure of binding affinity in units of concentration.

The record behind these values is paper PMC7359353, “Rab27a co-ordinates actin-dependent transport by controlling organelle-associated motors and track assembly proteins” (Nature Communications, 2020).
